Experimental data: patent publication US20220396632A1 (VERSEAU THERAPEUTICS, published 2022)

What was measured:
[1] = biological target: T1, PSGL-1(42-62) N-terminal peptide, sulfation state not told at the place (human, not fully specified; sulfation of Y46, Y48, Y51 not stated for these table columns); assay: mAb binding to PSGL-1(42-62)
T1 peptide: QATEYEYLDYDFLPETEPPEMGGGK

[2] = biological target: T2, Cynomolgus PSGL-1(ECD)-HIS (cynomolgus macaque); assay: ELISA, plate cyno PSGL-1(ECD)-HIS
T2 construct: also called Cyno PSGL1-His
T2 chain: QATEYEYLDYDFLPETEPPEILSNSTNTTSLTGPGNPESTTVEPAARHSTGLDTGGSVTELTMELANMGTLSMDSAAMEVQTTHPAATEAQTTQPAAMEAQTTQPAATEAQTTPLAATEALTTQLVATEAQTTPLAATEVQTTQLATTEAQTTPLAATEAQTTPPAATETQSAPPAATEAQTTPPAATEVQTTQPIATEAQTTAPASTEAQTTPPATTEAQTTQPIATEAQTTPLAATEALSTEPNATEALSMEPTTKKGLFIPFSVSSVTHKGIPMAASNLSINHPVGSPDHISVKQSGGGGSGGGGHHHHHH
Method: Antibody binding to plate-immobilized cyno PSGL-1(ECD) was determined either at one concentration (20 nM) or by generating full antibody binding curves (0.003-200 nM). A typical ELISA was performed by overnight coating at 4° C. with 3 ug/mL/25 ul per well of recombinant cyno PSGL-1(ECD) protein in PBS, pH 7.4, in high binding half-well plates (Corning Cat. #3690). […] Anti-PSGL-1 IgG in assay buffer (blocking buffer containing 0.05% tween 20) was added into test and control wells (20 nM/25 ul/well) and the plate incubated for 45 min at 37° C. […] The plate was incubated for 45 min at 37° C., and mAb bound to plate-immobilized target determined at A450 nm using HRP substrate (3,3′,5,5′-tetramethylbenzidine (TMB)). For each antibody, duplicate values were averaged and assay background subtracted.

[3] = biological target: T3, Biotin sY48 PSGL-1(42-62) peptide (human, sulfotyrosine at Y48; C-terminal Lys-biotin); assay: ELISA, plate-bound mAb captures biotin peptide
T3 construct: also called sY48S
T3 peptide: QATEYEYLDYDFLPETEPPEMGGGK
Method: (§1) Two ELISA methods were performed. One procedure detected mAb binding to its plate-immobilized target and the other measured the immobilized antibody's ability to capture biotinylated PSGL-1₄₂₋₆₂. […] The plate was incubated for 45 min at 37° C. Plates were washed 3 times with wash buffer (PBS containing 0.05% tween 20, pH 7.4) and a single concentration (2 to 500 nM) or serially diluted (0.002-100 nM) anti-PSGL-1 mAb was added (25 ul/well) in assay buffer into appropriate wells. The plate was incubated for 45 min at 37° C., washed 3 times, and an appropriate HRP-conjugated secondary antibody added (25 ul/well) (HRP goat anti-mouse or anti-human IgG). After 45 min incubation at 37° C., the plate was washed, and antibody bound to plate-immobilized target was determined at A450 nm using HRP substrate (3,3′,5,5′-etramethylbenzidine (TMB)). For each antibody, duplicate values were averaged and assay background was subtracted. Except for the following, ELISAs involving plate-immobilized mAb capturing of biotinylated PSGL-1₄₂₋₆₂ peptides was performed in the same manner as described above: 3 ug/mL/25 ul per well of mAb was coated directly onto microtiter plate wells; biotinylated unmodified or sulfotyrosine PSGL-1₄₂₋₆₂ was serially diluted (3 nM-3 uM) into appropriate wells, and antibody-bound peptide was detected using HRP-streptavidin (Jackson Immunoresearch, Cat. #016-030-084).

[4] = biological target: T4, Biotin Y46,48,51(SO3) PSGL-1(42-62) peptide (human, sulfotyrosine at Y46, Y48 and Y51; C-terminal Lys-biotin); assay: ELISA, plate-bound mAb captures biotin peptide
T4 construct: also called fully sulfated N-terminal PSGL-1 peptide
T4 peptide: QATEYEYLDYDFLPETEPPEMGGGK
Method: as §1

[5] = biological target: T5, Biotin sY46 PSGL-1(42-62) peptide (human, sulfotyrosine at Y46; C-terminal Lys-biotin); assay: ELISA, plate-bound mAb captures biotin peptide
T5 peptide: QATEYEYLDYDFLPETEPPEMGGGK
Method: as §1

[6] = biological target: T6, Biotin sY51 PSGL-1(42-62) peptide (human, sulfotyrosine at Y51; C-terminal Lys-biotin); assay: ELISA, plate-bound mAb captures biotin peptide
T6 construct: also called Y51(SO3) PSGL-1(42-62)
T6 peptide: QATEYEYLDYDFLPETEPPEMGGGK
Method: as §1

[7] = biological target: T4, Biotin Y46,48,51(SO3) PSGL-1(42-62) …; assay: ELISA, plate-bound target
Method: as §1

[8] = biological target: T7, Recombinant human PSGL-1(ECD)-hFc1 (R&D Systems, Cat. 3345-PS) (human, UniProt Q14242 42-305); assay: ELISA, plate-bound target
T7 construct: Bought; Gln42-Val295 counted on AAC50061; also called PSGL-1-Fc; PSGL-1-hFc1 chimera; not shown: human IgG1 Fc, Pro100-Lys330
T7 sequence: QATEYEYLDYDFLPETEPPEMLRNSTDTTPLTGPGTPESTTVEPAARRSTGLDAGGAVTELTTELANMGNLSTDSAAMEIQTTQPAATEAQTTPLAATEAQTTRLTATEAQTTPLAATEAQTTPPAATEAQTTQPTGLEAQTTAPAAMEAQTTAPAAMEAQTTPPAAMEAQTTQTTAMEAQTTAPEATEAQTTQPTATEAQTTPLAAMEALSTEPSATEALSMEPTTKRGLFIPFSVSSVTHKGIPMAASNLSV
Method: as §1

[9] = biological target: T4, Biotin Y46,48,51(SO3) PSGL-1(42-62) …; assay: capture ELISA; against parent 18F02
Method: (§2) A typical ELISA for N-terminal PSGL-1 reactive humanized mAbs binding to Y_{46,48,51}(SO₃) PSGL-1₍₄₂₋₆₂₎ involved coating high binding half-well plates (Corning Cat. #3690) with 3 ug/mL/25 ul per well of the mAbs or with an isotype hG4 control in PBS, pH 7.4, overnight at 4° C. […] Biotinylated Y_{46,48,51}(SO₃) PSGL-1₍₄₂₋₆₂₎ was added (25 ul per well) in duplicate at 2.8 uM in assay buffer (blocking buffer containing 0.05% tween 20) and serially diluted into test and control (just blocked) wells, and the plate incubated for 45 min at 37° C. The plate was washed ×3 and an appropriate HRP-conjugated streptavidin was added (25 ul per well; Jackson Immunoresearch, Cat. #016-030-084) and the plate was incubated for 45 min at 37° C. […] For each antibody, an EC50 value was determined from sigmoidal fitted peptide titration curve.

[10] = biological target: T4, Biotin Y46,48,51(SO3) PSGL-1(42-62) …; assay: ELISA, plate-bound mAb captures biotin 3 x sY peptide
Method: as §2

[11] = biological target: T3, Biotin sY48 PSGL-1(42-62) peptide; assay: capture ELISA; against 3 x sY peptide
Method: as §1

[12] = biological target: T4, Biotin Y46,48,51(SO3) PSGL-1(42-62) …; assay: capture ELISA; against 3 x sY peptide
Method: as §1

[13] = biological target: T6, Biotin sY51 PSGL-1(42-62) peptide; assay: capture ELISA; against 3 x sY peptide
Method: as §1

Binder	EC50 [3] [nM]	EC50 [4] [nM]	EC50 [6] [nM]	EC50 [7] [nM]	EC50 [8] [nM]	N-term peptide EC50 (normalized) [9] [fold]	EC50 [10] [nM]	other results
20H10 (antibody, V domains shown, Mouse hybridoma mAb; only variable domains given) VH: QVQLQQPGTELVKPGASVKLSCKASGYTFTNFWMHWVRQRPGQGLEWIGKINPGNGGTRYNEKFKTKATLTVDRSSSTACIQLSSLTSEDSAVYYCTSTNWDPYFDYWGQGTTLTVSS VL: not shown	–	–	–	–	–	–	–	binding result [1]: no binding; binding result [2]: no binding
SELK1 (antibody, V domains shown, Control anti-PSGL-1 mAb; only variable domains given) VH: QVQLQQSGPGLVKPSQTLSLTCAISGDSVSSNIAAWHWIRLSPSRGLEWLGRTYYRRSKWNYDYALSVKSRININPDTSKNLFSLQLNSVTPEDTAVYYCTRGGGRAHSAWGQGTLVTVSS VL: EIVLTQSPGTLSVSPGERATLSCRASQSVSRSHLAWYQQKPGQAPRLLIFGASSRATGIPDRFSGSGSGTDFTLTISRLEPEDFAVYYCQQYGRPGVTFGQGTKVEIK	8.34	6.2	129	0.07	0.02	–	–	EC50 [5]: 167 nM
18F02.001 (antibody, IgG4, V domains shown, Humanised) VH: QVQLVQSGAEVKKPGSSVKVSCKASGYTFTSYWMHWVRQAPGQGLEWMGMIHPNSGRTNYNEKFKSRVTITVDKSTSTAYMELSSLRSEDTAVYYCARSDYWGQGTLVTVSS VL: DIVMTQTPLSLSVTPGQPASISCRSSKSLLHSDGITYLYWFLQKPGQSPQLLIYRMSNLASGVPDRFSGSGSGTDFTLKISRVEAEDVGVYYCAQMLEFPRTFGQGTKLEIK	–	–	–	–	–	2.3	160	–
18F02.002 (antibody, IgG4, V domains shown, Humanised) VH: EVQLVQSGAEVKKPGSSVKVSCKASGYTFTSYWMHWVRQAPGQGLEWMGMIHPNSGRTNYNEKFKSRVTITVDKSTSTAYMELSSLRSEDTAVYYCARSDYWGQGTLVTVSS VL: DIVMTQTPLSLSVTPGQPASISCRSSKSLLHSDGITYLYWFLQKPGQSPQLLIYRMSNLASGVPDRFSGSGSGTDFTLKISRVEAEDVGVYYCAQMLEFPRTFGQGTKLEIK	–	–	–	–	–	2.1	150	–
PSG3 (antibody, V domains shown, Control anti-PSGL-1 mAb; only variable domains given) VH: QVQLVQSGAEVKKPGSSVRVSCKASGGSFSSYGIHWVQQAPGQGLEWMGRIIPVLRIRNYAQKFHDRVTIDADTSTGTAYMELSSLTSDDTAVYYCAGSRQGVAPTGYWGQGTMVTVSS VL: QAVLTQPSSLSASPGASASLTCNLRSGIDVGTYRIYWYQQKPGSPPQYLLRYKSDSDKQQGSGVPSRFSGTKDASANAGILLISGLQSEDEADYYCMIWHSNGWVFGGGTKLTVL	~600	93	~600	0.44	~0.1	–	–	EC50/EC50 3x(SO3)Y [11]: ~6 fold; EC50/EC50 3x(SO3)Y [12]: 1 fold; EC50/EC50 3x(SO3)Y [13]: ~6 fold
